Experimental data published in publication PMC6499999.

Key:
[1] = molecular target: RelSt3 relaxase encoded by ICESt3 from Streptococcus thermophilus (Streptococcus thermophilus (ICESt3)); assay: cross-linking; 5 ug RelSt3 in 20 uL with 0.001 to 0.1% glutaraldehyde, 15 min at room temperature, stopped with glycine; 10% SDS-PAGE, Coomassie
[2] = molecular target: RelSt3 relaxase encoded by ICESt3 from Streptococcus thermophilus (Streptococcus thermophilus (ICESt3)); assay: AUC; sedimentation velocity at 1 and 5 uM in 20 mM Tris-HCl pH 7.5, 500 mM NaCl, 25 °C, 42,000 rpm, absorbance at 280 nm; c(s) analysis with Sedfit
[3] = molecular target: RelSt3 relaxase encoded by ICESt3 from Streptococcus thermophilus (Streptococcus thermophilus (ICESt3)); assay: SEC; calibrated Superdex 200 gel filtration, final step of purification; single elution peak at 72.4 mL, apparent molecular weight about 88 kDa against a predicted 48.5 kDa

Measured: stoichiometry N

RelSt3 relaxase encoded by ICESt3 from Streptococcus thermophilus (enzyme)
2: all assays above
